# In patent US20190211098A1 (Genentech, published 2019):
# T1: Full length myc-DDK tagged PIANP, expressed on transfected 293T cells (human, UniProt Q8IYJ0 32-282)
# T1 construct: Bought construct (Origene Cat. No. RC207868); also called myc-PIANP; C12orf53 (human); not shown: myc-DDK tag of the Origene construct RC207868
# T1 sequence: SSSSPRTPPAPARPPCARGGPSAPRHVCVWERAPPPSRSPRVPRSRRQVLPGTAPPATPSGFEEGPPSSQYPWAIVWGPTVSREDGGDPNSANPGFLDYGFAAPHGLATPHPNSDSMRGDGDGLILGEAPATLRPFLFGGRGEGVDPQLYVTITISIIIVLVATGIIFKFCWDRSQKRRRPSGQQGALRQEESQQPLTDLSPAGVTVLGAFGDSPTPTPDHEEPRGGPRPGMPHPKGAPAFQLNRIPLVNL
# B1: Mouse PILRA ligand C12orf53 fused to human IgG1 Fc (Fc fusion)
# chain: SSHRSPPAPARPPCVRGGPSAPRHVCVWERAPPPSRSPRVPRSRRQVVPGTAPPATPSGFEEGPPSSQYPWAIVWGPTVSREDGGDPNSVNPGFLPLDYGFAAPHGLATPHPNSDSMRDDGDGLILGETPATLRPFLFGGRGEGVDP
# notes: also called C12orf53-Fc; mouse C12orf53-Fc; not shown: human IgG1 Fc
# B2: Anti-mouse PILRA antibody 12C6.9 (antibody, mouse IgG2a, kappa, V domains shown)
# VH: QIQLVQSGPELKKPGETVKISCKASGYTFTTYGMSWMKQAPGKGLKWMGWINTYSGVPTYADDFKGRFAFSLETSASTAYLQISNLKDEDTARYFCARRDYGSSQWYFDVWSTGTTVTVSS
# VL: DIVMTQSPKFMSISVGDRVSVTCKASQNVGTKVAWYQQKPGQSPKELIYSASYRFSGVPDRFTGSGSGTDFTLTISSVQSEDLAEYFCQQYNTYPLTFGAGTKLEIKR
# B3: Isotype control antibody 12D4 (antibody, mouse IgG2a, kappa, V domains shown)
# VH: QVQLQQSGAELVTPGASVKLSCKTSGHTFTSYWMNWVNQKPGQGLEWIGWIYGGSGNTKYNQKFQGKATLTVDTSSSTAYMELRSLTSDDSAVYFCASGTNFFDYWGQGTMVTVSS
# VL: DIVMTQSHKFMSTSVGDRVSITCKASQDVSTAVAWYQQKPGQSPKLLIYSASYRYTGVPDRFTGSGSGTDFTFTISSVQAEDLAVYYCQQHYSTPLTFGAGTKLELKR
# B4: PILRA A140 variant (Q140A) extracellular domain fused to murine IgG2a Fc (Fc fusion)
# chain: QPSGSTGSGPSYLYGVTQPKHLSASMGGSVEIPFSFYYPWELATAPDVRISWRRGHFHGQSFYSTRPPSIHKDYVNRLFLNWTEGQKSGFLRISNLQKQDQSVYFCRVELDTRSSGRQQWASIEGTKLSITQAVTTTTQRPSSMTTTWRLSSTTTTTGLRVTQGKRRSDSWHISLET
# notes: also called PILRA-mFc A140; PILRA-Fc A140; not shown: Fc region of murine IgG2a, C-terminal tag
# B5: Anti-mouse PILRA antibody 12H1.8 (antibody, mouse IgG2a, kappa, V domains shown)
# VH: QVQLQQSGAELVGPGTSVKISCQASGYTFTNYWIGWAKQRPGHGLEWIGDIYPGGGYTNYNKKFKGKATLTADKSSSTAYMQFSSLTSEDSAIYYCSRSRGHGSNFYWYFDVWGTGTTVTVSS
# VL: DIVMTQSPKFMSTSVGDRVNITCRASQDVNTAVAWFQQKPGRSPKLLIYSASYRYTGPDHFTGSGSGTDFTFTISSVQAEDLAVYYCQQHYTTPLTFGAGTKLEIKR
# B6: NPDC1-His (ligand)
# chain: GHPDVAACPGSLDCALKRRARCPPGAHACGPCLQPFQEDQQGLCVPRMRRPPGGGRPQPRLEDEIDFLAQELARKESGHSTPPLPKDRQRLPEPATLGFSARGQGLELGLPSTPGTPTPTPHTSLGSPVSSDPVHMSPLEPRGGQGD
# notes: not shown: His tag
# B7: PILRA G80 variant extracellular domain fused to murine IgG2a Fc (Fc fusion)
# chain: QPSGSTGSGPSYLYGVTQPKHLSASMGGSVEIPFSFYYPWELATAPDVRISWRRGHFHGQGFYSTRPPSIHKDYVNRLFLNWTEGQKSGFLRISNLQKQDQSVYFCRVELDTRSSGRQQWQSIEGTKLSITQAVTTTTQRPSSMTTTWRLSSTTTTTGLRVTQGKRRSDSWHISLET
# notes: also called PILRA-mFc G80; not shown: Fc region of murine IgG2a, C-terminal tag
# B8: PILRA R78 variant extracellular domain fused to murine IgG2a Fc (Fc fusion)
# chain: QPSGSTGSGPSYLYGVTQPKHLSASMGGSVEIPFSFYYPWELATAPDVRISWRRGHFHRQSFYSTRPPSIHKDYVNRLFLNWTEGQKSGFLRISNLQKQDQSVYFCRVELDTRSSGRQQWQSIEGTKLSITQAVTTTTQRPSSMTTTWRLSSTTTTTGLRVTQGKRRSDSWHISLET
# notes: also called PILRA-mFc R78; PILRA-Fc R78; not shown: Fc region of murine IgG2a, C-terminal tag
# B9: NPDC1 extracellular domain (1-190 aa) fused to murine IgG2a Fc (Fc fusion)
# chain: GHPDVAACPGSLDCALKRRARCPPGAHACGPCLQPFQEDQQGLCVPRMRRPPGGGRPQPRLEDEIDFLAQELARKESGHSTPPLPKDRQRLPEPATLGFSARGQGLELGLPSTPGTPTPTPHTSLGSPVSSDPVHMSPLEPRGGQGDGLALVLILA
# notes: also called NPDC1-mFc; NPDC1-mFC; not shown: Fc region of murine IgG2a, C-terminal tag
# Key:
# [1] = target: T2, Murine PILRA-His (mouse, UniProt Q2YFS3 32-198); assay: array SPR imaging, sandwich format: mAb 2 on the chip, murine PILRA-His 100 nM, then Fc-tagged ligand at 10 ug/ml; response normalised to the PILRA level
# T2 construct: not shown: His tag
# T2 sequence (Q2YFS3 32-198 limits assumed): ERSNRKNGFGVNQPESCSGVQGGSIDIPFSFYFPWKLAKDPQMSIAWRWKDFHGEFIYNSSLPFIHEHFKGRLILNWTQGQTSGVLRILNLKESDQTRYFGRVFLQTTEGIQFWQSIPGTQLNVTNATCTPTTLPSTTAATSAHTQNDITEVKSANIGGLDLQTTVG
# [2] = target: T3, Biotinylated mouse PILRA ECD (mouse, UniProt Q2YFS3 32-198, biotinylated (sites not given)); assay: competitive ELISA: biotinylated mouse PILRA ECD on Neutravidin plate, antibody titrated together with a fixed amount of mouse C12orf53-Fc, bound ligand-Fc detected with anti-human IgG-Fc-HRP
# T3 construct: Captured on Neutravidin plates; also called mPILRA; recombinant PILRA ECD
# T3 sequence (Q2YFS3 32-198 limits assumed): as above
# [3] = target: T3, Biotinylated mouse PILRA ECD; assay: competitive ELISA: biotinylated mouse PILRA ECD on Neutravidin plate, antibody titrated together with a fixed amount of mouse CD99-Fc, bound ligand-Fc detected with anti-human IgG-Fc-HRP
# Experimental: The PILRA ECD-based competitive ELISA was performed as follows. […] Plates were blocked with 0.5% bovine serum albumin, 15 ppm Proclin 300 (Supelco, Bellefonte, Pa.) in PBS (80 μl/well) at room temperature for 1 h and washed. Biotinylated mouse PILRA ECD at 0.25 μg/ml (Genentech, Inc.) in 0.5% bovine serum albumin, 0.05% polysorbate 20, 15 ppm Proclin 300 in PBS, pH 7.4 (assay buffer) was added to the plates. After 1.5 hrs incubation, plates were washed. […] The mixture of the serially diluted antibody and ligand-Fc was added to the plates at 25 μl/well. After a 2 hrs incubation, plates were washed. […] After a 1 hr incubation, plates were washed and the substrate 3,3′,5,5′-tetramethyl benzidine (Moss Inc., TMBE-1000) was added. The reaction was stopped by adding 1 M phosphoric acid. The absorbance was read at 450 nm using a microplate reader (Multiskan Ascent, Thermo Scientific, Waltham, Mass.). The titration curves were plotted using KaleidaGraph (Synerg Software, Reading, Pa.).
# [4] = target: T4, Mouse PILRA extracellular domain fused to human CD3 zeta chain transmembrane and intracellular domains, on … (mouse; human); assay: cell-based competitive ELISA: 293-PILRA stable cells, antibody titrated together with a fixed amount of mouse CD99-Fc
# T4 construct: domain: transmembrane and intracellular domains; also called cell surface PILRA
# T4 sequence (P20963 other isoform, or with tags, fused parts or gaps limits assumed): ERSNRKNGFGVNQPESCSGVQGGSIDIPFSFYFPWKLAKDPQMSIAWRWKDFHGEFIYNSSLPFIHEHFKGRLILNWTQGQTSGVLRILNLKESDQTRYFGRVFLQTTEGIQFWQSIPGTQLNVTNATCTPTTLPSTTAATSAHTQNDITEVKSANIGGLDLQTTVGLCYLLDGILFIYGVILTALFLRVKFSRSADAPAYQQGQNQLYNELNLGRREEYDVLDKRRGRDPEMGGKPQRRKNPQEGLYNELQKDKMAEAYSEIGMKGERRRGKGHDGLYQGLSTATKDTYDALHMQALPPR
# [5] = target: T3, Biotinylated mouse PILRA ECD; assay: competitive ELISA: biotinylated mouse PILRA ECD on Neutravidin plate, antibody titrated together with a fixed amount of mouse CD99-Fc
# [6] = target: B9; assay: SPR (ProteOn XPR36): PILRA-mFc A140 amine-coupled to a GLC chip, 100 nM NPDC1-mFc injected
# Experimental: PILRA variant ligand binding Surface Plasmon Resonance (SPR) was performed as follows.
# Next, the interaction of PILRA variants and ligands in vitro using surface plasmon resonance (SPR) was investigated.
# [7] = target: T4, Mouse PILRA extracellular domain fused …; assay: cell-based competitive ELISA: 293-PILRA stable cells, antibody titrated together with a fixed amount of mouse CD99-Fc, bound ligand-Fc detected with anti-human IgG-Fc-HRP
# Experimental: After plates were centrifuged at 1200 rpm for 5 min at 4° C., the supernatant was decanted and the mixture of the serially diluted antibody and the ligand-Fc was added. Plates were incubated at 4° C. for 1 h with gentle shaking. Cells were washed with ice-cold 0.1% BSA in PBS, pH 7.4 (wash buffer) by centrifuging the plate at 1200 rpm for 5 min at 4° C. and the cells were resuspended in 200 μl wash buffer. […] Plates were incubated at 4° C. for 1 hr with gentle shaking. Cells were washed with ice-cold wash buffer 4 times. Cells were resuspended in 100 μl of the substrate 3,3′,5,5′-tetramethyl benzidine (Moss Inc., TMBE-1000) and plates were incubated at room temperature for approximately 20 min for color development. The reaction was stopped by adding 1 M phosphoric acid. The absorbance was read at 450 nm using a microplate reader (Multiskan Ascent, Thermo Scientific, Waltham, Mass.). The titration curves were plotted using KaleidaGraph (Synerg Software, Reading, Pa.).
# [8] = target: B8; assay: SPR, NPDC1-His binding to PILRA variant
# [9] = target: T5, HSV-1 glycoprotein B, full length, expressed on transfected 293T cells (human herpes simplex virus type-1, UniProt P06437 31-904); assay: flow cytometry: soluble PILRA-mFc variant (50 ug/ml) on HSV-1 gB-transfected 293T cells, FITC anti-mouse IgG2a; MFI as % of G78 (= 100 %)
# T5 construct: Construct cloned from EF157316 (strain KOSc); also called HSV-1 gB; human herpesvirus 1 strain KOSc glycoprotein B (EF157316)
# [10] = target: B6; assay: SPR, NPDC1-His binding to PILRA variant
# [11] = target: T1, Full length myc-DDK tagged PIANP, …; assay: flow cytometry: soluble PILRA-mFc variant (50 ug/ml) on myc-PIANP-transfected 293T cells, FITC anti-mouse IgG2a; MFI as % of G78 (= 100 %)
# Experimental: The percentage of mean fluorescence intensity (MFI) of PILRA-mFC binding on ligand-transfected cells relative to the G78 variant of PILRA binding for each experiment was calculated.
# (§1) Cells were washed and NPDC1 and PILRA cell surface staining was assessed by flow cytometry using anti-mIgG2a-FITC and anti-PILRA antibodies, respectively. […] Binding of the G78 variant of PILRA to NPDC1 was considered 100%.
# [12] = target: B6; assay: SPR, NPDC1-His binding to PILRA variant; remark: listed apart in the source
# [13] = target: T6, R78 variant of PILRA (AD-protective), full-length, on cells (human, UniProt Q9UKJ1 20-303); assay: flow cytometry, soluble NPDC1-mIgG2a on PILRA-variant-transfected 293T cells
# T6 construct: also called PILRA R78; rs1859788 variant
# Experimental: (§2) Relative PILRA-ligand binding to PILRA variant transfected cells was performed as follows. […] Double positive cells were gated on the G78 sample and then the gates were overlaid on subsequent samples to maintain the same cell population throughout the experiment.
# [14] = target: T7, A141 variant of PILRA (S141A), full-length, expressed on transfected 293T cells (human, UniProt Q9UKJ1 20-303); assay: as above
# T7 construct: Point mutation put into the full-length G78 construct by site-directed mutagenesis
# Experimental: as §2
# [15] = target: T8, A140 variant of PILRA (Q140A), full-length, expressed on transfected 293T cells (human, UniProt Q9UKJ1 20-303); assay: as above
# T8 construct: Point mutation put into the full-length G78 construct by site-directed mutagenesis
# Experimental: as §2
# [16] = target: T6, R78 variant of PILRA (AD-protective), …; assay: flow cytometry, soluble NPDC1-mFc 50 ug/ml on PILRA-variant-transfected 293T cells
# Experimental: as §2, §1
# [17] = target: T9, A76 variant of PILRA, full-length, expressed on transfected 293T cells (human, UniProt Q9UKJ1 20-303); assay: as above
# T9 construct: Point mutation put into the full-length G78 construct by site-directed mutagenesis; also called F76 substituted to alanine
# Experimental: as §2, §1
# [18] = target: T10, G80 variant of PILRA, full-length, expressed on transfected 293T cells (human, UniProt Q9UKJ1 20-303); assay: as above
# T10 construct: Point mutation put into the full-length G78 construct by site-directed mutagenesis; also called S80 substituted to glycine
# Experimental: as §2, §1
# [19] = target: T11, A72 variant of PILRA, full-length, expressed on transfected 293T cells (human, UniProt Q9UKJ1 20-303); assay: as above
# T11 construct: Point mutation put into the full-length G78 construct by site-directed mutagenesis; also called R72 substituted to alanine
# Experimental: as §2, §1
binder,measurement,setting,value
B1,binding result,[1],binds
B2,IC50 (read off the curve),[2],~3 nM
same,IC50 (read off the curve),[3],~4 nM
B3,binding result,[4],no binding (tested: 200 nM)
same,binding result,[5],no binding (tested: 200 nM)
B4,binding result,[6],binds
B5,IC50 (read off the curve),[7],~8 nM
same,IC50 (read off the curve),[2],~4 nM
same,IC50 (read off the curve),[3],~4 nM
B6,Kd,[8],76.5 nM
same,kon,[8],6800 M⁻¹ s⁻¹
B7,binding result,[9],binds
same,Kd,[10],30 nM
same,kon,[10],17000 M⁻¹ s⁻¹
same,binding result,[11],binds
B8,binding result,[9],binds
same,fold lower affinity than the G78 variant,[12],~4.5 fold
same,fold lower kon than the G78 variant,[12],~3 fold
same,binding result,[11],binds
B9,% of G78 binding,[13],44 % of G78
same,% of G78 binding,[14],117 % of G78
same,% of G78 binding,[15],22 % of G78
same,binding result,[1],binds
same,% of G78 variant binding,[16],~35 % of G78 variant
same,% of G78 variant binding,[17],~20 % of G78 variant
same,% of G78 variant binding,[18],~60 % of G78 variant
same,% of G78 variant binding,[19],~20 % of G78 variant
